In article PMC4721543:

How the values were obtained:
human VEGF-A165 (human) [1] = assay: fluorescence correlation spectroscopy; as the FCS series, but VEGF165 labelled with NT 647 (Table 1)
human VEGF-A165 (human) [2] = assay: MST; 10 nM NT-647-labelled HGF or VEGF165 with serial dilutions of the unlabelled partner; 22°C, PBS plus 1% BSA; Monolith NT.115
human VEGF-A165 (human) [3] = assay: fluorescence correlation spectroscopy; 1-5 nM ATTO 647N-labelled growth factor with 0.1 nM to 20 μM unlabelled CD44 ectodomain; at least 3 h at room temperature; PBS with 0.05% Tween-20; 20°C; diffusion times fitted with a 1:1 binding model

Kd (human VEGF-A165 (human) [1]): 200 nM
Kd (human VEGF-A165 (human) [2]): 51 nM
Kd (human VEGF-A165 (human) [3]): 65 nM
Substance: rat CD44v6 ectodomain, hexahistidine-tagged (from UniProt P26051 22-410) (domain or fragment)
